Patent US20250136710A1 (COMPUGEN, published 2025)

T1: PVRL2 (human, UniProt Q92692 32-360, limits assumed)
T1 construct: also called PVLR2; CD112
T1 sequence (looked up): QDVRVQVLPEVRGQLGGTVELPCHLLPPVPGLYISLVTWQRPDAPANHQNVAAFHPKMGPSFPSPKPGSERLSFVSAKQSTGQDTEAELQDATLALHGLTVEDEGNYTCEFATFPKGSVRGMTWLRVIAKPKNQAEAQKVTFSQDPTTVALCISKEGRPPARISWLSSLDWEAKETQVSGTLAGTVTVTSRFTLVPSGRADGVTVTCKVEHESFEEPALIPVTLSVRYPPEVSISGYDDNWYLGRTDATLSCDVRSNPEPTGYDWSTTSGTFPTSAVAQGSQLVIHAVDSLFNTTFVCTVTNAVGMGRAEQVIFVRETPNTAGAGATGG

T2: PVR (UniProt P15151 21-343, limits assumed)
T2 construct: also called poliovirus receptor; CD155
T2 sequence (looked up): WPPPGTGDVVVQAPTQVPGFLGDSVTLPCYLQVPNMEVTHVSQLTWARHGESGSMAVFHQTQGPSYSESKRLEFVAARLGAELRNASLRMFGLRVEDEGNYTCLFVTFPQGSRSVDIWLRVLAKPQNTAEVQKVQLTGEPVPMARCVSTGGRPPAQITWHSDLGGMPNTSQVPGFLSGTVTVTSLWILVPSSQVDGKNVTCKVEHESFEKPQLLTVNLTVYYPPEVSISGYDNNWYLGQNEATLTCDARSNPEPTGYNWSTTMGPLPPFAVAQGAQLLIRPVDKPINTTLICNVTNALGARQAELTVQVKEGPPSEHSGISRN

B1: PVRIG (receptor, human, UniProt Q6DKI7 41-171, looked up)
chain: TPEVWVQVRMEATELSSFTIRCGFLGSGSISLVTVSWGGPNGAGGTTLAVLHPERGIRQWAPARQARWETQSSISLILEGSGASSPCANTTFCCKFASFPEGSWEACGSLPPSSDPGLSAPPTPAPILRAD
notes: also called CD112R; Human Poliovirus Receptor Related Immunoglobulin Domain Containing Protein
B2: TIGIT (receptor, human, UniProt Q495A1 22-141, looked up)
chain: MMTGTIETTGNISAEKGGSIILQCHLSSTTAQVTQVNWEQQDQLLAICNADLGWHISPSFKDRVAPGPGLGLTLQSLTVNDTGEYFCIYHTYPDGTYTGRIFLEVLESSVAEHGARFQIP
notes: also called human TIGIT

Assays:
[1] = target: T1, PVRL2; test: not described at this place
[2] = target: T2, PVR; test: not described at this place

Binder | binding result [1] | binding result [2]
B1 | binds | 
B2 |  | binds
